For three molecules, Mean fluorescence intensity and Mean fluorescence intensity (MFI) results are on record in patent publication EP4806467A2.

The target of assay [1] is ADAM9 on human tumour cells (LS174T, HepG2, Calu-3) (human) (UniProt Q13443). In words: flow cytometry on LS174T cells, negative control, 3.906250 nM. For orientation: In flow cytometry, cells or beads pass a laser one at a time.
For assay [2] the target is unchanged. The assay is described as follows: flow cytometry on HepG2 cells, negative control, 0.000238 nM.
Assay [3] has the same target. The assay is described as follows: flow cytometry on HepG2 cells, negative control, 0.061035 nM.
For assay [4] the target is unchanged. The assay is described as follows: flow cytometry on LS174T cells, negative control, 250 nM.
Assay [5] shares this target. In words: flow cytometry on LS174T cells, negative control, 0.061035 nM.
Assay [6] shares this target. The assay is described as follows: flow cytometry on HepG2 cells, negative control, 0.244141 nM.
Assay [7] shares this target. The assay is described as follows: flow cytometry on LS174T cells, negative control, 0.015259 nM.
The target is the same in assay [8]. The assay is described as follows: flow cytometry on HepG2 cells, negative control, 62.5 nM.
The target is the same in assay [9]. In words: flow cytometry on LS174T cells, negative control, 0.000954 nM.
Assay [10] has the same target. In words: flow cytometry on HepG2 cells, negative control, 0.000954 nM.
The target is the same in assay [11]. The assay is described as follows: flow cytometry on HepG2 cells, negative control, 15.625 nM.
Assay [12] shares this target. In words: flow cytometry on LS174T cells, negative control, 15.625 nM.
Assay [13] has the same target. In words: flow cytometry on HepG2 cells, negative control, 3.906250 nM.
The target is the same in assay [14]. The assay is described as follows: flow cytometry on LS174T cells, negative control, 0.244141 nM.
The target is the same in assay [15]. In words: flow cytometry on LS174T cells, negative control, 0.003815 nM.
Assay [16] shares this target. The assay is described as follows: flow cytometry on HepG2 cells, negative control, 0.976563 nM.
Assay [17] has the same target. The assay is described as follows: flow cytometry on HepG2 cells, negative control, 1000 nM.
Assay [18] has the same target. In words: flow cytometry on LS174T cells, negative control, 0.976563 nM.
Assay [19] has the same target. In words: flow cytometry on LS174T cells, negative control, 1000 nM.
Assay [20] has the same target. The assay is described as follows: flow cytometry on HepG2 cells, negative control, 0.003815 nM.
Assay [21] shares this target. The assay is described as follows: flow cytometry on HepG2 cells, negative control, 250 nM.
Assay [22] has the same target. In words: flow cytometry on LS174T cells, negative control, 62.5 nM.
The target is the same in assay [23]. The assay is described as follows: flow cytometry on HepG2 cells, negative control, 0.015259 nM.
Assay [24] shares this target. The assay is described as follows: flow cytometry on HepG2 cells, 0.244141 nM.
The target is the same in assay [25]. In words: flow cytometry on HepG2 cells, 250 nM.
The target is the same in assay [26]. In words: flow cytometry on HepG2 cells, 0.015259 nM.
Assay [27] shares this target. In words: flow cytometry on HepG2 cells, 0.061035 nM.
The target is the same in assay [28]. The assay is described as follows: flow cytometry on HepG2 cells, 1000 nM.
Assay [29] shares this target. In words: flow cytometry on HepG2 cells, 0.000954 nM.
The target is the same in assay [30]. In words: flow cytometry on HepG2 cells, 3.906250 nM.
Assay [31] shares this target. In words: flow cytometry on HepG2 cells, 0.003815 nM.
For assay [32] the target is unchanged. In words: flow cytometry on HepG2 cells, 62.5 nM.
The target is the same in assay [33]. In words: flow cytometry on HepG2 cells, 15.625 nM.
Assay [34] has the same target. The assay is described as follows: flow cytometry on HepG2 cells, 0.976563 nM.
For assay [35] the target is unchanged. In words: flow cytometry on HepG2 cells, 0.000238 nM.
Assay [36] shares this target. The assay is described as follows: flow cytometry on LS174T cells, 250 nM.
For assay [37] the target is unchanged. In words: flow cytometry on LS174T cells, 62.5 nM.
Assay [38] has the same target. In words: flow cytometry on LS174T cells, 0.015259 nM.
The target is the same in assay [39]. In words: flow cytometry on LS174T cells, 0.976563 nM.
The target is the same in assay [40]. The assay is described as follows: flow cytometry on LS174T cells, 15.625 nM.
Assay [41] has the same target. In words: flow cytometry on LS174T cells, 0.061035 nM.
Assay [42] has the same target. The assay is described as follows: flow cytometry on LS174T cells, 0.000954 nM.
The target is the same in assay [43]. The assay is described as follows: flow cytometry on LS174T cells, 1000 nM.
Assay [44] has the same target. In words: flow cytometry on LS174T cells, 0.003815 nM.
The target is the same in assay [45]. In words: flow cytometry on LS174T cells, 0.244141 nM.
For assay [46] the target is unchanged. In words: flow cytometry on LS174T cells, 3.906250 nM.

ADAM9 on human tumour cells (LS174T, HepG2, Calu-3) (human), sequence (Q13443 29-819): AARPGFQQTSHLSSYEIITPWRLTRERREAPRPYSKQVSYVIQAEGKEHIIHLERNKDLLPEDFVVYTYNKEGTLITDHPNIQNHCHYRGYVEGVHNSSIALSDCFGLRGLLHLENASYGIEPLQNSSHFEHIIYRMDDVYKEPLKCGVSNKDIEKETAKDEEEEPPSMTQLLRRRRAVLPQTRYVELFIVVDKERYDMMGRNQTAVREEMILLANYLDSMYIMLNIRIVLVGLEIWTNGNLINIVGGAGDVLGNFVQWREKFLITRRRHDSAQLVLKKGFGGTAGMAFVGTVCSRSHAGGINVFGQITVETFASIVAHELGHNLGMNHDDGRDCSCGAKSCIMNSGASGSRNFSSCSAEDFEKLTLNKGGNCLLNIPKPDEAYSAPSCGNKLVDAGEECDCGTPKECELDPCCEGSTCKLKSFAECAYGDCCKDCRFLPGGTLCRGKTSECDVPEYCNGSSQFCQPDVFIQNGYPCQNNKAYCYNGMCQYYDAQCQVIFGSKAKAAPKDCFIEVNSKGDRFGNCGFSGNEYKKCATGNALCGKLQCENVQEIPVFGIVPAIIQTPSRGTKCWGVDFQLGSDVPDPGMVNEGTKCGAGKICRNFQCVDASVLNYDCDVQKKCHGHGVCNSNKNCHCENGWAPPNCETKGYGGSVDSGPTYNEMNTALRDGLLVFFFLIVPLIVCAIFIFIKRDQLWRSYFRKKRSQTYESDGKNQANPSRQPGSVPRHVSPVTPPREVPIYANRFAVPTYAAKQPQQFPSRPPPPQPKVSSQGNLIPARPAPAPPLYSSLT

As for “anti-HIV human IgG antibody (iso-IgG1, produced by WuXi AppTec)”, the Mean fluorescence intensity was determined as 203 MFI in assay [1]; 269 MFI in assay [4]; 202 MFI in [5]; 213 MFI in [7]; 220 MFI in assay [9]; 209 MFI in assay [12]. Besides, the Mean fluorescence intensity in assay [14] was 208 MFI; in [15], 254 MFI; in assay [18], 212 MFI; in assay [19], 368 MFI; in assay [22], 229 MFI. Besides, the Mean fluorescence intensity (MFI) in [2] came to 361 MFI; in assay [3] it was 377 MFI; in assay [6], 363 MFI; in assay [8], 386 MFI; in assay [10], 365 MFI; in assay [11], 364 MFI. Also, the Mean fluorescence intensity (MFI) in assay [13] is 361 MFI; in assay [16], 360 MFI; in assay [17], 690 MFI; in [20], 349 MFI; in assay [21], 389 MFI; in assay [23], 371 MFI.

B1: Ab16-X1 (antibody, human IgG1, kappa, V domains shown)
VH: QVQLQQPGTEVVKPGASVKLSCKASGFTFPLYWMHWVRQRPGRGLEWIGRIIPIFGHTKYNEKFKNKATLTADESSSTAYMELRSLTSDDSAVYYCARGGYYYYPREGFLDYWGQGTSVTVSS
VL: DIVMTQSPASLSVSPGERASISCRSSQSVDYSGDSYMNWYQQKPGQSPRLLIYAASDRESGVPDRFSGSGSGTDFTLKISRVEEEDAGTYYCQQSREDPFTFGQGTKVDIKR
modifications: linker-payload X1 (camptothecin derivative) conjugated after TCEP reduction; DAR p = 7.8 for the whole antibody; positions not given
As for B1, the Mean fluorescence intensity (MFI) is 1090 MFI in assay [24]; 16600 MFI in assay [25]; 451 MFI in assay [26]; 623 MFI in [27]; 17400 MFI in [28]; 376 MFI in assay [29]. Besides, the Mean fluorescence intensity (MFI) in assay [30] was found to be 1780 MFI; in assay [31] it was 396 MFI; in assay [32], 3290 MFI; in assay [33] it was 2960 MFI; in assay [34], 1790 MFI; in [35], 370 MFI.

B2: Ab16-X2 (antibody, human IgG1, kappa, V domains shown)
VH: B1 VH
VL: B1 VL
modifications: linker-payload X2 (camptothecin derivative) conjugated after TCEP reduction; DAR p = 7.9 for the whole antibody; positions not given
On to B2, for which the Mean fluorescence intensity amounted to 2130 MFI in assay [36]; 2160 MFI in [37]; 268 MFI in assay [38]; 1960 MFI in assay [39]; 2400 MFI in [40]; 447 MFI in assay [41]. In addition, the Mean fluorescence intensity is 223 MFI in assay [42]; 1130 MFI in assay [43]; 219 MFI in [44]; 954 MFI in assay [45]; 2380 MFI in [46].
